Results published in patent publication US11214614B2, “LTBP complex-specific inhibitors of TGFβ and uses thereof” (Scholar Rock, Inc., priority 2019, dated 2022).

Tests used:
[1] = tested on: TGFβ downstream tonic signaling; assay: TGFβ downstream tonic signaling in non-diseased rat BAL; assay type: in vivo
Source text: Indeed, data presented herein support this notion. […] Preferably, TGFβ antagonists for use in the treatment of such conditions exert their inhibitory activities only towards the disease-induced or disease-associated isoform, while preserving the function of the other isoforms that are normally expressed to mediate tonic signaling in the tissue. […] Alternatively or additionally, agents that target and block integrin-dependent activation of TGFβ may be capable of blocking only a subset of integrins responsible for disease-associated TGFβ1 activation, among numerous integrin types that are expressed by various cell types and play a role in the pathogenesis. Furthermore, even where such antagonists may selectively block integrin-mediated activation of the TGFβ1 isoform, it may be ineffective in blocking TGFβ1 activation triggered by other modes, such as protease-dependent activation. Accordingly, the isoform-specific inhibitors of TGFβ1 such as those described herein are aimed to prevent the activation step of TGFβ1 regardless of the particular mode of activation, while maintaining isoform selectivity.

[2] = in vivo; cited from earlier work
[3] = literature reports (Frazier et al. 2007; Stauber et al. 2014, chronic ≥3 months); cited from earlier work
[4] = Stauber et al. 2014, chronic (≥3 months) administration; cited from earlier work
huLTBP3 proTGFβ1 = huLTBP3 proTGFβ1 (Homo sapiens, UniProt P01137+Q9NS15); assay: Octet (BLI) binding, IgG captured on AHC tips, antigen at 100 nM; settings: Table 9, cycle 3, IgG1-agly
Description: (§1) Suitable methods for in vitro binding assays to determine the parameters of binding kinetics include Bio-layer Interferometry (BLI)-based assays such as Octet, and surface plasmon resonance (SPR)-based assays, such as Biacore systems (see, for example: biophysics.bioc.cam.ac.uk/wp-content/uploads/2011/02/Biacore_assay_handbook.pdf).
(§2) The affinity of SR-AB10, SR-AB2 and SR-AB13 was measured by Octet assay. The protocol used to measure the affinity of the antibodies to the complexes provided herein is summarized below.
(§3) • 96 well black polypropylene plates • AHC Octet tips (anti-human IgG Fc capture tips) (FortdBio) • 10× kinetics buffer (FortdBio) (diluted to 1× in PBS) • reiner Bio-One 96-Well Half Area Microplates (VWR cat #82050-044) Procedure:
(§4) Notes: The volume within each well during an Octet experiment is 100 uL.
(§5) A shake speed of 1000 rpm is used for all assay steps.
(§6) Pre-Wet Tips: • Biosensors must be pre-wet in 1× kinetics buffer (lx KB) for at least 10 minutes before starting an experiment. This can be done inside the Octet or on the bench.
(§7) Loading: • Tips are baselined in 1× KB for 1 minute before loading. • AHC tips are loaded with antibody at a concentration of 1 μg/mL (˜7 nM) for 3 minutes. A limit is set so that loading will stop when any one sensor reaches a response of 1 nanometer. • Tips are baselined in buffer for 1 minute after loading. The antibody should not dissociate from the tips during this time.
(§8) Antigen Association: • TGFβ1 in complex with various presentation molecules was associated to the immobilized antibodies at a single concentration of 100 nM in 1× KB.
(§9) Antibody Dissociation: • Dissociation in 1×KB was performed for 3 minutes.
(§10) Data Analysis using ForteBio Data analysis software 8.2: • Processing: align Y axis to last 5 seconds of baseline, perform inter-step correction with align to dissociation, and perform Savitzky-Golay filtering. • Analysis: 1:1 fitting model is utilized. Fitting is local and full. […] Results:
(§11) LTBP complex-specific antibodies from the first round of affinity maturation/optimization (SR-AB14, SR-AB16, SR-AB17, SR-AB18, SR-AB19) were selected for a second round of affinity maturation/optimization (i.e., CDR-H3 mutagenesis as described herein) and particular progeny antibodies (SR-AB20, SR-AB21, SR-AB22, SR-AB23, SR-AB24, SR-AB25, SR-AB26, SR-AB27, SR-AB28, and SR-AB29) were assessed for their ability to bind various proTGFβl constructs. Binding affinities of the optimized antibodies were measured by Octet against human LTBP1-proTGFβI, human LTBP3-proTGFb1, mouse LTBP1-proTGFβ1, mouse LTBP3-proTGFb1, and GARP-proTGFβl complexes, essentially as described in Example 6. In brief, test antibodies were immobilized to the surface of anti-human Fc capture biosensors (AHC) (ForteBio®) and binding was then tested against the various TGFβ1 complexes at a single concentration of 100 nM to assess binding affinities. The antigens were allowed to associate for 3 minutes followed by a 5-minute dissociation. Kinetics buffer (ForteBio®) was used throughout the experiment, and KD was determined using a 1:1 fitting model for each antibody antigen pair.
(§12) Binding affinities of the optimized antibodies were measured by Octet against human LTBP1-proTGFβ1, human LTBP3-proTGFβ1, mouse LTBP1-proTGFβ1, mouse LTBP3-proTGFβ1, and GARP-proTGFβ1 complexes, essentially as described in Example 6. In brief, test antibodies were immobilized to the surface of anti-human Fc capture biosensors (AHC) (ForteBio®) and binding was then tested against the various TGFβ1 complexes at a single concentration of 100 nM to assess binding affinities. The antigens were allowed to associate for 3 minutes followed by a 5-minute dissociation. Kinetics buffer (ForteBio®) was used throughout the experiment, and KD was determined using a 1:1 fitting model for each antibody antigen pair.

[5] = tested on: male C57BL/6J mice on CDHFD (liver fibrosis); assay: Choline-deficient high fat diet (CDHFD) model of mouse NASH, liver hydroxyproline content; assay type: in vivo; settings: 15 mg/kg twice a week i.p., weeks 4 through 12 of CDHFD
Source text: The Choline deficient high fat diet (CDHFD) is an established diet-induced model of Non-Alcoholic steatohepatitis (NASH). In this model, male C57BL/6J mice are fed a choline deficient, 0.10% Methionine, high fat diet for 12 weeks. Three to six weeks after the start of the CDHFD, activation of pro-fibrotic processes can be detected through increased expression of α-smooth muscle actin (α-SMA) protein, a marker for activation of hepatic stellate cells, and elevated tissue hydroxyproline content reflecting increased collagen synthesis and deposition (Matsumoto et. al, Int J Exp Pathol. 2013 April; 94(2):93-103).
LTBP complex-specific antibodies were tested for their ability to inhibit and/or reduce the extent of liver fibrosis in mice in the CDHFD model as follows. An outline of the study is shown below in Table 21.
Animals in the test cohorts were on the CDHFD for the duration of the study. A separate cohort of mice (Group 1) were administered a regular chow diet as a study control. Antibodies SR-AB42 and SR-AB31 were administered to mice by intraperitoneal (i.p.) injection beginning at 4 weeks post start of the CDHFD. Animals were dosed at antibody test concentrations 15 mg/kg twice a week (i.e., 30 mg/kg/week) for a test duration of 8 weeks (i.e., weeks 4 through 12). […] Endpoint readout was hydroxyproline content. […]

huLTBP1 proTGFβ1 = huLTBP1 proTGFβ1 (Homo sapiens, UniProt P01137+Q14766); assay: Octet (BLI) binding, IgG captured on AHC tips, antigen at 100 nM; settings: Table 9, cycle 3, IgG1-agly
Description: as §1, §2, §3, §4, §5, §6, §7, §8, §9, §10, §11
as §12, with “pair. […]” for “pair.”

Chain of huLTBP1 proTGFβ1 (P01137 30-390): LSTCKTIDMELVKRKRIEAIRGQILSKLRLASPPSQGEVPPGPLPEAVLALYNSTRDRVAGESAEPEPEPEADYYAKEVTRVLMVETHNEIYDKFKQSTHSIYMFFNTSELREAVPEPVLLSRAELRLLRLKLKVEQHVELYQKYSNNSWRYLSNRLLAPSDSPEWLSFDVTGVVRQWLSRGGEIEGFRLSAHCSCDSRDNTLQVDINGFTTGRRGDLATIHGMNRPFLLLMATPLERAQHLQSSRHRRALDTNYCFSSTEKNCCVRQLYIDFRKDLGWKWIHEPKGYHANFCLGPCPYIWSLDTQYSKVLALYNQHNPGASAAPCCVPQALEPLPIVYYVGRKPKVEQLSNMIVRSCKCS
Chain of huLTBP1 proTGFβ1 (Q14766 347-1721 limits assumed): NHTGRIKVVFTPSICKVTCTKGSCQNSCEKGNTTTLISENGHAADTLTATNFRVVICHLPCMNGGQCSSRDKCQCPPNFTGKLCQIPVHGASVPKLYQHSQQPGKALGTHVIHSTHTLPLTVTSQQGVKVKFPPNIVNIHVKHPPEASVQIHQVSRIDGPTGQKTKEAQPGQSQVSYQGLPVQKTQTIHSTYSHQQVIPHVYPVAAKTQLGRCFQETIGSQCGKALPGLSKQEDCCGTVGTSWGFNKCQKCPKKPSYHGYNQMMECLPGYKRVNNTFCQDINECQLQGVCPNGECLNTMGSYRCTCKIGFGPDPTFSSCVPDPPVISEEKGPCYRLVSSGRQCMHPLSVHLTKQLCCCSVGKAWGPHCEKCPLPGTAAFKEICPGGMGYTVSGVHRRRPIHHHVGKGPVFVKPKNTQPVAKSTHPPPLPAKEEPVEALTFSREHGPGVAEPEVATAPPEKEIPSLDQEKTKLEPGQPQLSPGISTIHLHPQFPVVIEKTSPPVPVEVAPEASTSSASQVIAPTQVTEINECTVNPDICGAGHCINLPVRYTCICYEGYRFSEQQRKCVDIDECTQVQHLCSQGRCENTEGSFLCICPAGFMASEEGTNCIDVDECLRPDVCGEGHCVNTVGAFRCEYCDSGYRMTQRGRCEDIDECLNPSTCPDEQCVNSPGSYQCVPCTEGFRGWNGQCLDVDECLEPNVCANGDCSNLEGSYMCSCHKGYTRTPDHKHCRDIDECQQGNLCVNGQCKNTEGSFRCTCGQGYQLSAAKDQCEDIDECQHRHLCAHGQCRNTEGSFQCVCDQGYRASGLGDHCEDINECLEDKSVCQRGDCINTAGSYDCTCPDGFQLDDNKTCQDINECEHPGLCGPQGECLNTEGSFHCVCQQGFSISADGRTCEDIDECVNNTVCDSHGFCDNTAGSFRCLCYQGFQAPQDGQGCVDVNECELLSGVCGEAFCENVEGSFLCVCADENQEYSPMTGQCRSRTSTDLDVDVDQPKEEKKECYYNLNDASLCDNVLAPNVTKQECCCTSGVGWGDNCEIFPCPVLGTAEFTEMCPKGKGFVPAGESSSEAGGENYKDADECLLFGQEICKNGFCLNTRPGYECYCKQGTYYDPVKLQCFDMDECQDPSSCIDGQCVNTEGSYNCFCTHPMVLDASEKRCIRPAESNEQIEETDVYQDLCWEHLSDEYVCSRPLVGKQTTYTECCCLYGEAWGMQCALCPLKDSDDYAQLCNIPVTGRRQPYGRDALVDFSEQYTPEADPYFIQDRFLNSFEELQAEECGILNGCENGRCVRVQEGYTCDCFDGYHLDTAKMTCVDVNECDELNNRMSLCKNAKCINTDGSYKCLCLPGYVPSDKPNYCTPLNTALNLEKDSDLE
Chain of huLTBP3 proTGFβ1 (P01137 30-390): as the sequence (P01137 30-390) above
Chain of huLTBP3 proTGFβ1 (Q9NS15 44-1303): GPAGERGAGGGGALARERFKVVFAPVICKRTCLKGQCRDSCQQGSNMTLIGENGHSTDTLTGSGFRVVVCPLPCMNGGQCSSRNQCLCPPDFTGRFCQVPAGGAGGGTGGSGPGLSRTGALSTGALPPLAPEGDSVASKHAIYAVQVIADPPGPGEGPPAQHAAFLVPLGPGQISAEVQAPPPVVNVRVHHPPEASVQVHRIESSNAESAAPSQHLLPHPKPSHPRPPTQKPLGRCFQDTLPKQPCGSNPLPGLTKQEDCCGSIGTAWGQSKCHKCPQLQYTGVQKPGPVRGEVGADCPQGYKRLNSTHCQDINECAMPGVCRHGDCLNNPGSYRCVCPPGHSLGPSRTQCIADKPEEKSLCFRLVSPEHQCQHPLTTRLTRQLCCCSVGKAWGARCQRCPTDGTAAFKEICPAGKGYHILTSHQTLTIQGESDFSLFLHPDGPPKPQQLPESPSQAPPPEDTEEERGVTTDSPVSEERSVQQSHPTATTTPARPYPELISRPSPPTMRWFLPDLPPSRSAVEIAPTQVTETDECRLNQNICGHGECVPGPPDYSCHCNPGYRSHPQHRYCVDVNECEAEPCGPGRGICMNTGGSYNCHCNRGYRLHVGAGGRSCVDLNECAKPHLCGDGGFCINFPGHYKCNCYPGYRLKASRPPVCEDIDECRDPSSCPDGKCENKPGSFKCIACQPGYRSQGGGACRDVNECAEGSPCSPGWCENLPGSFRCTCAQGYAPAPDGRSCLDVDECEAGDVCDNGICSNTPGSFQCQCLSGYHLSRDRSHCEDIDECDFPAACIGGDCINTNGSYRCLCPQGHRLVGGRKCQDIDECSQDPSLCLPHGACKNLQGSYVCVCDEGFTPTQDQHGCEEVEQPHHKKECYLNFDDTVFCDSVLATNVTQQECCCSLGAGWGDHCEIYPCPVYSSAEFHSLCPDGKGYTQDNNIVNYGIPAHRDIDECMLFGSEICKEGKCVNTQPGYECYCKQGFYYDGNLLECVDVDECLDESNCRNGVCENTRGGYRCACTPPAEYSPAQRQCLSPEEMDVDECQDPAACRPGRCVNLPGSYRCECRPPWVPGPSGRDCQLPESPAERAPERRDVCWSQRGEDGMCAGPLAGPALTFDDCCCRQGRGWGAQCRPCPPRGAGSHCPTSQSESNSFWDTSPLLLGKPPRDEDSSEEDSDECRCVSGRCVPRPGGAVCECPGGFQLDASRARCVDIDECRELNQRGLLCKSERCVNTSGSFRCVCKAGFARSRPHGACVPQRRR

Molecule: c1ccc(-c2nn3c(c2-c2ccnc4cc(OCCN5CCOCC5)ccc24)CCC3)nc1 [LY2109761]
- TGFβ downstream tonic signaling [1]: inhibit TGFβ downstream tonic signaling in non-diseased rat BAL

Molecule: GC1008: a “pan” TGFβ antibody capable of neutralizing all human isoforms of TGFβ
- Exposure, DN Cmax, Human [2]: DN Cmax ~(350 ng/mL) (ng/mL) mg
- Exposure, Half-life, Human [2]: Half-life: 21.7 d

Molecule: Cc1cccc(-c2nn3c(c2-c2ccnc4ccc(C(N)=O)cc24)CCC3)n1 [LY2157299]
- Toxicity in rats [3]: caused multiple organ toxicities involving the cardiovascular, gastrointestinal, immune, bone/cartilage, reproductive, and renal systems
- Toxicity in dogs [4]: caused multiple organ toxicities involving the cardiovascular, gastrointestinal, immune, bone/cartilage, reproductive, and renal systems

B1: SR-AB31: cycle 3 light chain-optimized antibody, lineage SR-AB22; CDRs SEQ ID NO: 124-129 (antibody, V domains shown)
VH: QVQLVESGGGVVQPGRSLRLSCAASGFTFRSYVMHWVRQAPGKGLEWVAVISHEGSLKYYADSVKGRFTISRDNSKNTLYLQMNSLRAEDTAVYYCAVPRIAARRGGFGYWGQGTLVTVSS
VL: NFMLTQPHSVSESPGKTVTISCTRSSGNIDNNYVQWYQQRPGSSPTTVIYEDNQRPSGVPDRFSGSIDSSSNSASLTISGLKTEDEADYYCQSYDFNNQGVVFGGGTKLTVL
- Hu LTBP3-proTGFβ1 Kon (huLTBP3 proTGFβ1; 1:1 fit): 308000 M⁻¹ s⁻¹
- Hu LTBP3-proTGFβ1 Koff (huLTBP3 proTGFβ1; 5-minute dissociation): 6.81e-05 s⁻¹
- Hydroxyproline (HYP) in liver tissue [5]: inhibited the increase in HYP
- Hu LTBP1-proTGFβ1 Kon (huLTBP1 proTGFβ1; 1:1 fit): 240000 M⁻¹ s⁻¹
- Hu LTBP1-proTGFβ1 Koff (huLTBP1 proTGFβ1; 5-minute dissociation): 9.89e-05 s⁻¹
